# Measurements: patent US20200140543A1 (Memorial Sloan Kettering, published 2020)
# T1: Recombinant human A33 protein (human, UniProt Q99795 22-235, limits assumed)
# T1 construct: Bought protein, immobilized on the sensor chip by amine coupling; also called human A33 antigen; A33 glycoprotein antigen
# T1 sequence (looked up): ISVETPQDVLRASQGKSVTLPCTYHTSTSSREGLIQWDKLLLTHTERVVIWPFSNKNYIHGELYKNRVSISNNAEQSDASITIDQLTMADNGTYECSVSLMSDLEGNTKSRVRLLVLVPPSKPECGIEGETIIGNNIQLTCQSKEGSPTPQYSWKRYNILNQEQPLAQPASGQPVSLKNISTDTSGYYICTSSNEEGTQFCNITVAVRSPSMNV
# B1: huA33-IgG1 (monospecific humanized antibody A33) (antibody, V domains shown)
# VH: EVQLVESGGGLVKPGGSLRLSCAASGFAFSTYDMSWVRQAPGKRLEWVATISSGGSYTYYLDSVKGRFTISRDNAKNSLYLQMNSLRAEDTAVYYCAPTTVVPFAYWGQGTLVTVSS
# VL: DIQMTQSQSSLSTSVGDRVTITCKASQNVRTVVAWYQQKPGKSPKTLIYLASNRHTGVPSRFSGSGSGTEFTLTISNVQPEDFADYFCLQHWSYPLTFGSGTKLEIKR
# B2: huA33-C825 bispecific antibody (humanized A33 IgG1-murine C825 scFv) (bispecific antibody)
# heavy: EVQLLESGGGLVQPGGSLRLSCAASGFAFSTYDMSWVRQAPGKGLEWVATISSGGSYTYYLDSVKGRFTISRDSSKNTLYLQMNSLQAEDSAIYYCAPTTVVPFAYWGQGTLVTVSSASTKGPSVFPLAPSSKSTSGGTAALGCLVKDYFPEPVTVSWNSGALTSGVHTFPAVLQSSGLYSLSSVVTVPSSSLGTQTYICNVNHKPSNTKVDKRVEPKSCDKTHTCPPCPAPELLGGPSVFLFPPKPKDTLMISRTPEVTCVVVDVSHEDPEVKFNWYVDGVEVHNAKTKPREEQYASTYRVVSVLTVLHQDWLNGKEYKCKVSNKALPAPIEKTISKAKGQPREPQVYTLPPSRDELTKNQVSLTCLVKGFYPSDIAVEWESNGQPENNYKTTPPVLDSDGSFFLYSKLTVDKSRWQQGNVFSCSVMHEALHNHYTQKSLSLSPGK
# light: DIQMTQSPSSLSVSVGDRVTITCKASQNVRTVVAWYQQKPGLAPKTLIYLASNRHTGVPSRFSGSGSGTDFTFTISSLQPEDIATYFCQQHWSYPLTFGQGTKVEVKRTVAAPSVFIFPPSDEQLKSGTASVVCLLNNFYPREAKVQWKVDNALQSGNSQESVTEQDSKDSTYSLSSTLTLSKADYEKHKVYACEVTHQGLSSPVTKSFNRGECGGGGSGGGGSASHVKLQESGPGLVQPSQSLSLTCTVSGFSLTDYGVHWVRQSPGKGLEWLGVIWSGGGTAYNTALISRLNIYRDNSKNQVFLEMNSLQAEDTAMYYCARRGSYPYNYFDAWGCGTTVTVSSGGGGSGGGGSGGGGSQAVVIQESALTTPPGETVTLTCGSSTGAVTASNYANWVQEKPDHCFTGLIGGHNNRPPGVPARFSGSLIGDKAALTIAGTQTEDEAIYFCALWYSDHWVIGGGTRLTVLG
# notes: IgG-scFv format: the anti-DOTA-Bn scFv C825 is linked to the carboxyl end of the huA33 light chain; also called anti-A33/anti-DOTA-Bn (metal) bispecific antibody
# Molecular target: T1, Recombinant human A33 protein
# Assay: SPR, Biacore T100; A33 immobilized by amine coupling, antibody as analyte, bivalent analyte model
# Method: Binding affinity was measured by Biacore T100.
# Biacore T100 Biosensor, CMS sensor chip, and related reagents were purchased from GE Healthcare. Recombinant human A33 protein was purchased from Novoprotein. A BSA-(Y)-DOTA-Bn conjugate was prepared as described (Cheal et al., supra). A33 and DOTA antigens were immobilized using the Amino Coupling kit (GE Healthcare). Purified bispecific antibodies and control antibodies were analyzed, and data were fit to a bivalent analyte model using the Biacore T100 evaluation software as described (Cheal et al., supra).
binder,measurement,value
B1,Kd,1.71 nM
same,koff,0.00105 s⁻¹
same,kon,614000 M⁻¹ s⁻¹
B2,Kd,63.5 nM
same,koff,0.00581 s⁻¹
same,kon,91500 M⁻¹ s⁻¹
